Test results published in article PMC12416549 (2024).
Numbering of substitutions follows the chain as printed. Numbers in names are those of the source.

T1: TNFR1 (Homo sapiens, UniProt P19438)
T1 chain: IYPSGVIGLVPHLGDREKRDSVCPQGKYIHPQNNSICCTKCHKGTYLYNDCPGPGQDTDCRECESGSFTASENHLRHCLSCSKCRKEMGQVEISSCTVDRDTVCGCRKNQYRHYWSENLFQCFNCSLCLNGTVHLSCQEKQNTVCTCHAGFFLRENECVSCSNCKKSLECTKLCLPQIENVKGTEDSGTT

B1: L25S (designed binder)
chain: SMEEEVEKAAKEYEKKKKEAIEKHSEKLKAKDKEAAERFLKELEEAAKEYAKDEAKTMSEEEAKRRAKKYKEKVLLSELSEEEQKEIKEAEEKLVRTILKYVEEAAK
B2: K48I (designed binder)
chain: B1 chain with S25L, K48I
B3: R96I (designed binder)
chain: B1 chain with S25L, R96I
B4: S59V (designed binder)
chain: B1 chain with S25L, S59V
B5: A46N (designed binder)
chain: B1 chain with S25L, A46N
B6: K71M (designed binder)
chain: B1 chain with S25L, K71M
B7: F39M (designed binder)
chain: B1 chain with S25L, F39M
B8: K33C (designed binder)
chain: B1 chain with S25L, K33C
B9: K64Q (designed binder)
chain: B1 chain with S25L, K64Q
B10: E61V (designed binder)
chain: B1 chain with S25L, E61V
B11: A35D (designed binder)
chain: B1 chain with S25L, A35D
B12: Q84V (designed binder)
chain: B1 chain with S25L, Q84V
B13: E49V (designed binder)
chain: B1 chain with S25L, E49V
B14: E34P (designed binder)
chain: B1 chain with S25L, E34P
B15: I21N (designed binder)
chain: B1 chain with I21N, S25L
B16: E83F (designed binder)
chain: B1 chain with S25L, E83F
B17: E34R (designed binder)
chain: B1 chain with S25L, E34R
B18: A30N (designed binder)
chain: B1 chain with S25L, A30N
B19: E83I (designed binder)
chain: B1 chain with S25L, E83I
B20: L79W (designed binder)
chain: B1 chain with S25L, L79W
B21: A63C (designed binder)
chain: B1 chain with S25L, A63C
B22: K64I (designed binder)
chain: B1 chain with S25L, K64I
B23: K31Y (designed binder)
chain: B1 chain with S25L, K31Y
B24: A30S (designed binder)
chain: B1 chain with S25L, A30S
B25: K88D (designed binder)
chain: B1 chain with S25L, K88D
B26: K107C (designed binder)
chain: B1 chain with S25L, K107C
B27: E5D (designed binder)
chain: B1 chain with E5D, S25L
B28: K48M (designed binder)
chain: B1 chain with S25L, K48M
B29: S1L (designed binder)
chain: B1 chain with S1L, S25L
B30: V6C (designed binder)
chain: B1 chain with V6C, S25L
B31: E45V (designed binder)
chain: B1 chain with S25L, E45V
B32: L28Y (designed binder)
chain: B1 chain with S25L, L28Y
B33: D32Q (designed binder)
chain: B1 chain with S25L, D32Q
B34: L76E (designed binder)
chain: B1 chain with S25L, L76E
B35: I87C (designed binder)
chain: B1 chain with S25L, I87C
B36: E61K (designed binder)
chain: B1 chain with S25L, E61K
B37: E62H (designed binder)
chain: B1 chain with S25L, E62H
B38: K68W (designed binder)
chain: B1 chain with S25L, K68W
B39: K93L (designed binder)
chain: B1 chain with S25L, K93L
B40: S80E (designed binder)
chain: B1 chain with S25L, S80E
B41: L40F (designed binder)
chain: B1 chain with S25L, L40F
B42: D32H (designed binder)
chain: B1 chain with S25L, D32H
B43: S77H (designed binder)
chain: B1 chain with S25L, S77H
B44: K41N (designed binder)
chain: B1 chain with S25L, K41N
B45: L28W (designed binder)
chain: B1 chain with S25L, L28W
B46: K100H (designed binder)
chain: B1 chain with S25L, K100H
B47: E22W (designed binder)
chain: B1 chain with E22W, S25L
B48: M2I (designed binder)
chain: B1 chain with M2I, S25L
B49: E34I (designed binder)
chain: B1 chain with S25L, E34I
B50: K52L (designed binder)
chain: B1 chain with S25L, K52L
B51: E103D (designed binder)
chain: B1 chain with S25L, E103D
B52: A55W (designed binder)
chain: B1 chain with S25L, A55W
B53: A105Q (designed binder)
chain: B1 chain with S25L, A105Q
B54: Q84T (designed binder)
chain: B1 chain with S25L, Q84T
B55: K16W (designed binder)
chain: B1 chain with K16W, S25L
B56: K11W (designed binder)
chain: B1 chain with K11W, S25L
B57: M58E (designed binder)
chain: B1 chain with S25L, M58E
B58: E92G (designed binder)
chain: B1 chain with S25L, E92G
B59: H24K (designed binder)
chain: B1 chain with H24K, S25L

Target: T1, TNFR1
Assay: yeast display SC50

Row | apparent Kd (screen) [nM] | Binder
1 | 1.05 | B1
2 | 0.49 | B2
3 | 0.718 | B3
4 | 1.54 | B4
5 | 1.69 | B5
6 | 3 | B6
7 | 3 | B7
8 | 0.653 | B8
9 | 0.446 | B9
10 | 1.16 | B10
11 | 2.25 | B11
12 | 3 | B12
13 | 10.4 | B13
14 | 0.653 | B14
15 | 1.69 | B15
16 | 2.05 | B16
17 | 0.446 | B17
18 | 0.79 | B18
19 | 0.446 | B19
20 | 6.43 | B20

Row | apparent Kd (screen) [nM] | Binder
21 | 26.9 | B21
22 | 1.05 | B22
23 | 0.49 | B23
24 | 0.718 | B24
25 | 0.446 | B25
26 | 2.73 | B26
27 | 0.653 | B27
28 | 0.653 | B28
29 | 1.4 | B29
30 | 1.27 | B30
31 | 1.86 | B31
32 | 0.446 | B32
33 | 1.16 | B33
34 | 2.48 | B34
35 | 3.3 | B35
36 | 1.69 | B36
37 | 0.79 | B37
38 | 2.73 | B38
39 | 1.05 | B39
40 | 5.84 | B40

Row | apparent Kd (screen) [nM] | Binder
41 | 0.869 | B41
42 | 0.718 | B42
43 | 0.49 | B43
44 | 0.49 | B44
45 | 0.49 | B45
46 | 1.16 | B46
47 | 0.593 | B47
48 | 1.27 | B48
49 | 0.446 | B49
50 | 0.869 | B50
51 | 0.79 | B51
52 | 20.2 | B52
53 | 0.593 | B53
54 | 11.4 | B54
55 | 0.49 | B55
56 | 0.79 | B56
57 | 8.56 | B57
58 | 1.54 | B58
59 | 2.73 | B59
